In patent US20260234247A1 (published 2026):
Substitutions are numbered along the chain they refer to.

B1: LK-RB2-2 (antibody, human IgG4 S228P, kappa, V domains shown)
VH: DVKLEESGEGLVKPGGSLKLSCAASGFTFSSYAMSWVRQTPEKRLEWVAYISSGGDYFHYADTVKGRFTISRDNARNTLYLQMSSLKSEDTAMYYCTREGAHYDSSYLAWFAHWGQGTLVTVSA
VL: DIQMTQSPASLSVSVGETVTITCRASENIYSNLAWYQQRQGKSPQLLVYAATNLADGVPSRFSGSGSGTQYSLKINSLQSEDFGSYYCQQFWDNPLTFGAGTKLELKR
B2: LK-RB2-3 (antibody, human IgG4 S228P, kappa, V domains shown)
VH: QLQLQQSDAELVKPGASVKISCKVSGYSFTDHTIHWMKQRPEQGLEWIGYIYPRDGSTKENEKFTGKATLTADKSSSTAYMQLTSLTSEDSAVYFCTGSGFDYWGQGTSLTVSS
VL: DIKMTQSPSSMYASLGERVTITCKASQDIKSYLSWFQQKPGKSPKTLIYRANRLVDGVPSRFSGSGSGQDYSLTINSLEYEDMEIYYCLQYDEFPYTFGGGTKLEIKR
B3: LK-RB2-4 (antibody, human IgG4 S228P, kappa, V domains shown)
VH: EVQLVESGGDLVKPGGSLKLSCAASGFTFSNYGMSWVRQTPDKRLEWVATISSGGSYTFYPDSVKGRFTISRDNAKNTLYLQMSSLKSEDTALYYCARDYYYGKTIEGYFDYWGQGTTLTVSS
VL: DIQMTQTTSSLSASLGDRVTISCRANQDISNYLNWYQQKPDGTVKLLIYYTSRLHSGVPSRFSGSGSGTDYSLTISDLEQEDIATYFCQQGNTLPWTFGGGTKLEIKR
B4: LK-RB2-1 (antibody, human IgG4 S228P, kappa, V domains shown)
VH: QIQLVQSGPELKKPGETVKISCKASGYTFTTYGMSWVKQAPGKGLKWMGWINTYSGVSTYADDFKGRFAFSLETSASTAYLQINNLKNEDTATYFCARRYDYDGYAMDYWGQGTSVTVSS
VL: DIVMSQSPSSLAVSVGEKVTMSCKSSQSLLFSSNQKNYLAWYQQKPGQSPKLLIYWASTRESGVPDRFTGRGSGTDFTLTISSVKTEDLAVYYCQQYDTYPPTFGGGTKLEIKR
B5: LK-RB2-6 (antibody, human IgG4 S228P, kappa, V domains shown)
VH: B4 VH with K46E, T53I, S58P, Y100G, G104S, Y105F, A106Y, M107F, S115T, V116L
VL: B4 VL with M21V, F31Y, S33Y, A57S, R71S, T86A, Y97C, D98Y, T99N, P102Y
B6: LK-RB2-40 (antibody, human IgG4 S228P, kappa, V domains shown)
VH: DVQLQESGPGLVKPSQSLSLTCSVTGYSITSGYYWNWIRQFPGNKLEWMAYISYDGSNNYNPSLKNRISITRDTSKNQFFLKLNSVTTEDTATYYCAREEGTAQATLGYFDYWGQGTTLTVSS
VL: B1 VL with R39K, Q90H, N94T, L96F, A100S, L106I
B7: LK-RB2-45 (antibody, human IgG4 S228P, kappa, V domains shown)
VH: QIQLVQSGPELKKPGETVKISCKASGYTFTTYGMSWVKQTPGKGLQWMGWINVYSGVPTYADDFKGRFAFSLEASASTAYLQINNLKNEDTASYFCARRGDYDGHYFDYWGQGTTLTVSS
VL: DIVMTQSPATLSVTPGDRVSLSCRASQSISDYLNWYQQKSHESPRLLIKYVSQSISGIPSRFSGSGSGSDFTLSINSVEPEDIGVYYCQNGHNFPLTFGGGTKLELKR
B8: LK-RB2-37 (antibody, human IgG4 S228P, kappa, V domains shown)
VH: B4 VH with L11V, S58P, A76V, A92S, Y100R
VL: B4 VL with F31Y, S33G, T59A, R71S, T86A, D98Y, P102F, G106S
B9: LK-RB2-41 (antibody, human IgG4 S228P, kappa, V domains shown)
VH: EVQLQLSGPELVKPGASVKMSCKASGYTFTDYNMHWVKQSHGKSLEWIGYINPNNGGTTYNQKFKGKATLTVNKSSSTAYMELRSLTSEDSAVYYCARAPYYGSSYLLAYWGQGTLVTVSA
VL: DIVMTQSHKFMSTSVGDRVSITCKASQDVSTAVAWYQQKPGQSPKLLIYSASYRYTGVPDRFTGSGSGTDFTFTISSVQAEDLAIYYCQQHYSIPWTFGGGTKLEIKR
B10: LK-RB2-36 (antibody, human IgG4 S228P, kappa, V domains shown)
VH: QVQLQQSGAELVRPGASVKMSCKASGYTFTNYWIGWAKQRPGHGLEWIGDIYPGGTYTGYNEKFKGKATLTADKSSSTAYMQFSSLTSEDSAIYYCARRMDYDGYAMDYWGQGTSVTVSS
VL: DIVLTQSPASLSVTPGDSVSLSCRASQSISNNLHWYQQKSHESPRLLIKYASQSISGIPSRFSGSGSGTDFTLSINSVETEDFGMYFCQQSNSWPLTFGAGTKLELKR
B11: J19.h1 (antibody, human IgG4 S228P, kappa, V domains shown)
VH: QITLKESGPTLVKPTQTLTLTCTFSGFSLNTYAMGVSWIRQPPGKALEWLASIWWNGNKYNNPSLKSRLTVTKDTSKNQVVLTMTNMDPVDTATYYCAHSRIIRFTDYVMDAWGQGTLVTVSS
VL: DIQMTQSPSSLSTSVGDRVTITCRASEDIYNDLAWYQQKPGKAPKLLIYNANSLHTGVASRFSGSGSGTDFTFTISSLQPEDVATYFCQQYYDYPLTFGQGTKLEIKR
B12: LK-RB1-16 (antibody, human IgG4 S228P, kappa, V domains shown)
VH: QVQLKESGPGLVAPSQSLSITCTVSGFSLISNAISWVRQPPGKGLEWLGVIWGDGNTIYHSALRSRLTISKDNSKSQVFLKLNSLQIDDTATYYCAKANWDGYYFDYWGQGTTLTVSS
VL: DIQMNQSPSSLSASLGDTITITCHASQSVDFWLNWYQQKPGNIPKLLISKASNLHTGVPSRFSGSGSGTTFTLTISSLQPEDIATYYCQQGQSYPLTFGSGTKLEIKR
notes: Anti-LILRB1 antibody from mouse hybridoma; parental antibody of LK-RB1-16.h1 to h3
B13: LK-RB1-16.h2 (antibody, human IgG4, kappa, V domains shown)
VH: QVQLQESGPGLVKPSETLSLTCTVSGFSLISNAISWIRQPPGKGLEWLGVIWGDGNTIYHSALRSRLTISKDTSKNQVFLKLSSVTAADTAVYYCAKANWDGYYFDYWGQGTTVTVSS
VL: DIQMTQSPSTLSASVGDRVTITCHASQSVDFWLNWYQQKPGKAPKLLIYKASNLHTGVPSRFSGSGSGTEFTLTISSLQPDDFATYYCQQGQSYPLTFGQGTKLEIKR
notes: Humanized form of LK-RB1-16
B14: LK-RB1-16.h3 (antibody, human IgG4, kappa, V domains shown)
VH: B13 VH
VL: B13 VL with Y49S
notes: Humanized form of LK-RB1-16
B15: LK-RB1-16.h1 (antibody, human IgG4, kappa, V domains shown)
VH: B13 VH with L67V, V78F, F79S
VL: B13 VL
notes: Humanized form of LK-RB1-16

Target: T1, human LILRB2 (human, UniProt Q8N423 22-460, limits assumed)
T1 construct: also called hLILRB2
Assay: Octet off-rate ranking;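 further: antibody dissociation rate constants against cynomolgus LILRB2 plus human LILRB1, LILRB2, LILRA1 and LILRA2, measured on an Octet instrument to rank binding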
Text: Binding affinity of anti-LILRB1 and anti-LILRB2 antibodies against human LILRB1, LILRB2, LILRA1, LILRA2 and cynomolgus LILRB2 was ranked by measuring dissociation rate constant (Kdis) using the Octet system.

T1 sequence (Q8N423 22-460 limits assumed): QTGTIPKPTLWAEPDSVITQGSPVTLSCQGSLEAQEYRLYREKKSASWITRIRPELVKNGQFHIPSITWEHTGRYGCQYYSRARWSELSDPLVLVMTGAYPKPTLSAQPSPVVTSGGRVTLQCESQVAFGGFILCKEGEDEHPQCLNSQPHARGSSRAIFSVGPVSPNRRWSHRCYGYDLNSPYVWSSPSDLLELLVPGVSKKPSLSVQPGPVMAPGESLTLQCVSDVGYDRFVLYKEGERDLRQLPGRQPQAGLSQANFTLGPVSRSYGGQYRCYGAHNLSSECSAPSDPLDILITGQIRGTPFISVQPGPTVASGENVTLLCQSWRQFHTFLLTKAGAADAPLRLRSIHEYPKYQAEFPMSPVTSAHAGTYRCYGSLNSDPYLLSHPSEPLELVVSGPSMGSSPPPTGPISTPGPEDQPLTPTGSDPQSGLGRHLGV

koff [s⁻¹]	Binder
0.000757	B1
3.91e-05	B2
0.000157	B3
0.00341	B4
0.00167	B5

Target: T2, human LILRB2 expressed on CHOK1 cells (CHOK1-hLILRB2) (human, UniProt Q8N423 22-597)
T2 construct: whole, on cells; also called CHOK1-LILRB2
Assay: cell based RBA, flow cytometry: blocking of HLA-G binding to CHOK1-hLILRB2 cells

T2 sequence (Q8N423 22-597): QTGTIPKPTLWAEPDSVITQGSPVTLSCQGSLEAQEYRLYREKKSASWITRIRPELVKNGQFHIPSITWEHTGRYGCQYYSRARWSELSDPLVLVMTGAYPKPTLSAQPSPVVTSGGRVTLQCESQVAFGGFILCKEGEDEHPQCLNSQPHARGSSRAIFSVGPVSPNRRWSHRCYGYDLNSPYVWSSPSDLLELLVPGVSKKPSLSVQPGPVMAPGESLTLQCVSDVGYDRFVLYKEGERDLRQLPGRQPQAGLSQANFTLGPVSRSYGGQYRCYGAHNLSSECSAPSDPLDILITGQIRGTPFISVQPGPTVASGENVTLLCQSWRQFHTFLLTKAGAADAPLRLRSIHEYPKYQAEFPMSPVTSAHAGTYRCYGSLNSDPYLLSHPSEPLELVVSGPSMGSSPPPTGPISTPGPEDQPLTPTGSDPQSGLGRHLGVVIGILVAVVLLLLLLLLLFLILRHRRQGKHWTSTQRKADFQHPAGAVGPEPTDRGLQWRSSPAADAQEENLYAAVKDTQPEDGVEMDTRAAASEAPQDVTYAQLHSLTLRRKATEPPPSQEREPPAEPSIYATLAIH

EC50 [nM]	Top Inhibition [%]	Binder
0.445	79.4	B6
0.0673	81.6	B7
0.268	77.3	B8
0.157	80.1	B9
0.506	80.6	B10
0.0889	68.7	B11

Target: T2, human LILRB2 expressed on CHOK1 cells …
Assay: FACS binding to CHOK1-hLILRB2 cells

EC50 [nM]	Binder
0.53	B6
0.3	B7
0.34	B8
0.37	B9
0.72	B10
0.15	B11

Target: T3, human LILRB1 expressed on CHOK1 cells (CHOK1-hLILRB1) (human, UniProt Q8NHL6 24-650)
T3 construct: whole, on cells; also called CHOK1-LILRB1
Assay: FACS binding to CHOK1-hLILRB1 cells

T3 sequence (Q8NHL6 24-650): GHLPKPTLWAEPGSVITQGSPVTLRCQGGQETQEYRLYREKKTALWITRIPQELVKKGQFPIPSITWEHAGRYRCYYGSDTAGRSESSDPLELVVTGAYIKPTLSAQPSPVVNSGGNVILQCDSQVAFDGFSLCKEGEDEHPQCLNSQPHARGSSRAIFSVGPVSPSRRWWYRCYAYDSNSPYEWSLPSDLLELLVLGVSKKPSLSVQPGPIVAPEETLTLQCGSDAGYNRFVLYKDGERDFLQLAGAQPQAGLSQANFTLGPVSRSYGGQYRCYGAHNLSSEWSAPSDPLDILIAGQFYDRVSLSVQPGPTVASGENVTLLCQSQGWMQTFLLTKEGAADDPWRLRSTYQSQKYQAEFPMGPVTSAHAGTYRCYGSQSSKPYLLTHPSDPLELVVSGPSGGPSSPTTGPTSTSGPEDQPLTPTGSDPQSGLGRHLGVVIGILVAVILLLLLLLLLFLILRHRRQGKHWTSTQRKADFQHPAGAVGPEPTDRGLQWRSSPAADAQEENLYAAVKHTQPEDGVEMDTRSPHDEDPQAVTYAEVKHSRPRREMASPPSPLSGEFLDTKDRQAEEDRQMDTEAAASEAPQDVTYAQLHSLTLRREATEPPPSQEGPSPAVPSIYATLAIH

binding result	EC50 [nM]	Binder
no binding	–	B6
–	1.48	B7
no binding	–	B8
no binding	–	B9
no binding	–	B10
no binding	–	B11

Target: T4, human LILRB1-his (human, UniProt Q8NHL6 24-458, limits assumed)
T4 construct: Analyte of the Biacore run; not shown: His tag
Assay: SPR (Biacore 8K), antibody captured via Fc, LILRB1-his as analyte, 1:1 model

T4 sequence (Q8NHL6 24-458 limits assumed): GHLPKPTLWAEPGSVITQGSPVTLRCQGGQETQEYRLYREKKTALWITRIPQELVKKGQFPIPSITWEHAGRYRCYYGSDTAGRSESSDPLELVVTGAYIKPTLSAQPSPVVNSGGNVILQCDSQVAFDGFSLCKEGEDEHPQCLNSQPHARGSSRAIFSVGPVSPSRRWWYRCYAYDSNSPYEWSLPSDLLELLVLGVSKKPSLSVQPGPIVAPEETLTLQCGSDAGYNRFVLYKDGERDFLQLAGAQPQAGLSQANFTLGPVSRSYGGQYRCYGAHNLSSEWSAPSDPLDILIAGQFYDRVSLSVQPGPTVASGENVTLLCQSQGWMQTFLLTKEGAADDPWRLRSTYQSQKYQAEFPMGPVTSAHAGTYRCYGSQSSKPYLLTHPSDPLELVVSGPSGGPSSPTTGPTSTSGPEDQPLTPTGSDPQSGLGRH

Kd [nM]	koff [s⁻¹]	kon [M⁻¹ s⁻¹]	Binder
0.194	0.000108	556000	B12
0.235	0.000112	476000	B13
0.24	0.000107	444000	B14
0.507	0.0002	394000	B15
